Source: a protein production outcome set (Wang et al. 2014)

Experiment: label from the status in PepcDB records

| Sequence | protein production |
| --- | --- |
| KGSQVKLEVISDEKGAKPRTITLTREQIRLEDRAVKLTEKVINGDKIAILDIPSFYVGLTNDVKTQLQKVAKDNVSALVIDLRGNGGGALTEAIALSGLFIPSGPVVQVRDNNGRVRQDYDRDDVVYYKGPLVVIVNRFSASASEIFAAAMQDYGRALIVGEQTFGKGTVQQYRSLTRVYDQMLSPDWPSLGSVQYTIQKFYRINGGSTQLKGVTPDLLLPSFDNSEMGESNEDNALPW | failed |
| KGVVTIEQIVDTLPDRGRSCWHLGAVWALSQFQENELFLGMYPEEHFIEKPVKEAMARFRKNLEAIVSVIAERNKKKQLPYYYLSPDRIPNSVAI | failed |
| KHSSTQQRLSRMLHEDGFVMHYQLLQSVVEKDVISFEALLRYQDREGNLCPPTFISDFQLLNMMPTLDKLVIDKVLTDMQKMDLNEDRRVAINISVASIEEHGFAEHVIDRLKFFSIPPHWLEIEITEEAILSDNHNLLSTLEILKSHGIKIAMDDFGTGYASFPHLLKYPFDKIKLDRSLLLDASTTKGKQLYQLIAQMGDVANCEVVAEGVETEDEFKFVAECGVDKVQGFLIARP | failed |
| KIERDKAERAKKYGGSVGSQPPPVAPEPGPVPSSPSQEPPTKREYDQCRIQVRLPDGTSLTQTFRAREQLAAVRLYVELHRGEELGGGQDPVQLLSGFPRRAFSEADMERPLQELGLVPSAVLIVAKKC | failed |
| KIGYGKANPTTRLWVGGLGPNTSLAALAREFDRFGSIRTIDHVKGDSFAYIQYESLDAAQAACAKMRGFPLGGPDRRLRVDFAK | not failed |
| KKAKKVRFYRNGDRYFKGIVYAISPDRFRSFEALLADLTRTLSDNVNLPQGVRTIYTIDGLKKISSLDQLVEGESYVCGSIEPFKKLEYTKNVNPNWSVNVKT | not failed |
| KKLANADANNDSRVYVAVDGDIGVGYATMKVFMLSNDEYKILSGKYPRQVPVVMLDQIAVDKAYQGKGIGKRLMRKVLEATVLVNELAAAKGLALWAHPRAKDFYESLGFEAIPDATKQVQDVELTLMFIHVETILDALK | failed |
| KKLCGYLSKFGGKGPIRGWKSRWFFYDERKCQLYYSRTAQDANPLDSIDLSSAVFDCKADAEEGIFEIKTPSRVITLKAATKQAMLYWLQQLQMKRWEFHNSPPAP | not failed |
| KLIGITGMPGSGKSAITKLAEKYKIVVVSMGDVVRYETLKQGMPLNPENVGNTAVKLREIYGKEAIAVPCLNYVNEKYNNEDFVIIEGIRSIYEVNYIKKHAELDIIAIHSSPKTRFERLSGRNREDDSNDWNTFVERDERELNFSIGRVISLADYMVVNEGNYMDFVNDLENTFKKIINV | failed |
| KMLDEKFYSKLLGEELDLIICLPPDFSPLYKYPLFIVQDGKDYFQFGKLARHSEELAVNEQIQKAIFIGIPYKTVMDRREKYHPDGEQNEAYIRFLAFELVPYLEERFPSFQMPTSRFL | not failed |
| KNTGSKHNFLNHGLPLNLAIKPYLALKGSVDFPAENGVQNTESTQEKREIGDEENSAKFPIGRRDFDMLRCMLGRVYRPCWQV | failed |
| KNVVHQLSVTLEDLYNGATRKLALQKNVICDKCEGRGGKKGAVECCPNCRGTGMQIRIHQIGPGMVQQIQSVCMECQGHGERISPKDRCKSCNGRKIVREKKILEVHIDKGMKDGQKITFHGEGDQEPGLEPGDIIIVLDQKDHAVFTRRGEDLFMCMDIQLVEALCGFQKPISTLDNRTIVITSHPGQIVKHGDIKCVLNEGMPIYRRPYEKGRLIIEFKVNFPENGFLSPDKLSLLEKLLPERKEVEETDEMDQVELVDFDPNQERRRHYNGEAYEDDEHHPRGGVQCQTS | failed |
| KNYDLSDLPGPPSKPQVTDVTKNSVTLSWQPGTPGTLPASAYIIEAFSQSVSNSWQTVANHVKTTLYTVRGLRPNTIYLFMVRAINPQGLSDPSPMSDPVRTQD | not failed |
| KPQEGIGARCRRALKDLPLTNLSRLLQCELAEGKALRWGADSLEPAAVVGLNSLGSLVWAPGQPSRWPVPLLLLGGTLDLITPPLDEQLGVFSALASHPSSRVVVVEGASHFSPIRVGEPMA | failed |
| KQFPGYPEFVLVEIETQRGCPKAMGIGGCSFCTEPVRYKVVENRPQEYVAQEVETFYNMGIRHFRIGRQSCIFSYKARPNGRVPIPKPEEVEKLFKAVRLAAPNVKTLHVDNANPAVIANYPEESRRIAKAIIEYGTPGNVVAFGLETADPKVARINNLNATPEETYEAVKIINEVGGRRGYNGLPWLLPGINIIFGLPGETKRTYELTYEFLKKILDDGLMVRRINIRQVVVFPGTPLWNMRDKVKTEKHKALIEHYRHKIRHEIDLPMLKRVVPVG | failed |
